Results published in the supplement of paper PMC9170038.

Tested on: MS2 coat protein
Assay: apparent KD of MS2 coat protein; designed switch direction (-1 OFF switch, 1 ON switch): -1; higher = weaker reporter binding
In short: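 Designed RNA switches with common flanks were made on Illumina chips by stalled E. coli RNA polymerase. Titration with SNAP-549-labelled MS2 coat protein doubled from 0.7 or 1.5 nM up to 3 µM. Apparent KD is each design's median over clusters after curve-fitting normalised fluorescence.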

[1] = Eterna round: R95, input ligand: FMN 200 uM
[2] = Eterna round: R95, input ligand: microRNA oligo, concentration not stated
[3] = Eterna round: R95, input ligand: none
[4] = input ligand: microRNA oligo, concentration not stated

| Sequence | apparent KD of MS2 coat protein (input ligand: FMN 200 uM) [nM] | apparent KD of MS2 coat protein (input ligand: none) [nM] | apparent KD of MS2 coat protein [2] [nM] | other results |
| --- | --- | --- | --- | --- |
| UAUUACCCAAGCAGGUCCCACAUGAGGAUCACCCAUGUGCUCGUCUUAUAACGAUCUGUGGGAAAACCUACGGAUCG [Elimod 20 - Jieux - Sensor, turn-off variant 1] (Eterna round: R97, puzzle: Sensor, turn-off variant 1) | 27.7 | 34.4 | – | – |
| UAUUAGCAAGCAACUGGGUACAUGAGGAUCACCCAUGUGCUCGUCUUAUAAGGUACUGUGACGAAAGUCACUGUACC [mod--Eli14] (Eterna round: R97, puzzle: Sensor, turn-off variant 1) | 17.8 | 16.3 | – | – |
| UAUUAGCAAGCAAGAUCCUACAUGAGGAUCACCCAUGUGCUCGUCUUAAGCCCAGAAUUACUGGGCGCUCGUCUUAU [Winner reversed engineered 21] (Eterna round: R97, puzzle: Sensor, turn-off variant 1) | 521 | 684 | – | – |
| UAUUAGCAAGCAGGAUCCCACAUGAGGAUCACCCAUGUGCUCGUCUUAUAAGGUACUGUGACGAAAGUCACGGUACC [Sensor 3, v1 - 90] (puzzle: Sensor v3, turn-off variant 1) | – | – | 186 | apparent KD of MS2 coat protein [1]: 81.3 nM; apparent KD of MS2 coat protein [3]: 90.9 nM |
| UAUUAGUAAGGAUAUCUCUGCAUGGACGAAAGUCCAUGCAGAGAGAAGGUACAUGAGGAUCACCCAUGUUCAUU [Mod of Fisker 17 - Jieux - Exclusion 4] (Eterna round: R97, puzzle: Exclusion 4) | 17.1 | 15 | – | – |
| UAUUAGUAAGGAUAUGAGCCGUAGGACGAAAGUCCUACGGCUCAGAAGGUACAUGAGGAUCACCCAUGUUUAUU [Mod of Fisker 6 - Jieux - Exclusion 4] (Eterna round: R97, puzzle: Exclusion 4) | 22.5 | 15.9 | – | – |
| UAUUCACAAGCGAGAUCCCACAUGAGGAUCACCCAUGUGCUCGUCUUAUAAGGUACUGUGACGAAAGUCACGGUACC [Sensor 3, v1 - 91 v25] (Eterna round: R97, puzzle: Sensor, turn-off variant 1) | 19.9 | 20 | – | – |
| UAUUCACAUGAGGAUCACCCAUGUCAGGAUAUAUUCGAUAUAUGGAAACAUAUAUCGAAUAGAAGGGACUAGCG [Jieuxxlusion 10 - Jieux - Exclusion 1] (Eterna round: R97, puzzle: Exclusion 1) | 54.6 | – | – | – |
| UAUUCGCGAGGAUAUGCAUUCGAGUCCAUUACGUGUCUGGGACUUGAGGAUCACCCAAGUAGAAGGCGUCUCAU [salish99_ex2_r4_643] (Eterna round: R97, puzzle: Exclusion 2) | 99.7 | 145 | – | – |
| UAUUGAGAGCAGGAUAUAUUCCUGAUGUAUGAAGUAGAAGGGCUCACAUGAGGAUCACCCAUGUGAUCCUGAAU [Mat - Exclusion 6 - Eli Mod - D5] (Eterna round: R97, puzzle: Exclusion 6) | 15.5 | 14 | – | – |
| UAUUUAGCAAGCAGAUCCCACAUGAGGAUCACCCAUGUUUUCUGAAUGUACAGAAUUACUGUACUUGCUCGUCUUAU [Winner reversed engineered 36] (Eterna round: R97, puzzle: Sensor, turn-off variant 1) | 76.2 | 82.6 | – | – |
| UAUUUAGCAAGUAGAUCCUACAUGAGGAUCACCCAUGUGCUCUGAAAUAACGCAGAAUUACUGCGAGCUCGUCUUAU [Winner reversed engineered 28] (Eterna round: R97, puzzle: Sensor, turn-off variant 1) | 1080 | 1560 | – | – |
| UAUUUGCAAGCGAGAUCCCACAUGAGGAUCACCCAUGUGCUCGUCUUAUAAGGUACUGUGACGAUAGUCACGGUACC [Mat - Sensor, turn-off var - Eli Mod - D89] (Eterna round: R97, puzzle: Sensor, turn-off variant 1) | 14 | 14.4 | – | – |
| UCAAGCUUUAGGCGUGUGAACAUGAGGAUCACCCAUGUAUUUUUGGUUAGGAGUUCUGUAAGGGAUGCUCGUCUUAU [JR_SWV3TOV1_Sub092] (puzzle: Sensor v3, turn-off variant 1) | – | – | 54.8 | apparent KD of MS2 coat protein [1]: 57.5 nM; apparent KD of MS2 coat protein [3]: 75.8 nM |
| UCAAGUUUUUUGUUUUUUAACAUGAGGAUCACCCAUGUAUUUUUAUAGUAUGUGUGAAUAAGAUCUCUUUGUCUUAU [JR_SV3TOV1_Sub098] (puzzle: Sensor v3, turn-off variant 1) | – | – | 149 | apparent KD of MS2 coat protein [1]: 46.6 nM; apparent KD of MS2 coat protein [3]: 49.5 nM |
| UCACGGGACUAAGGAUAUACAUGAACUAUUAUUGUAGAAGGUAGAAUGUUAGAUUAUACACUAAACAUGAGGAUCACCCAUGUU [JR_ExcNG1_Sub094] (Eterna round: R96, puzzle: Exclusion NG 1) | – | – | – | apparent KD of MS2 coat protein [4]: 15.9 nM |
| UCACGGGAUUGAGGAUAUAUUUAAAUUUUUACAAUAGAAGGCAAAUUUUUAGUUUUUUCACUUUACAUGAGGAUCACCCAUGUU [JR_ExcBG1_Sub082] (Eterna round: R96, puzzle: Exclusion NG 1) | – | – | – | apparent KD of MS2 coat protein [4]: 19.6 nM |
| UCAUAACAUGAGGAUCACCCAUGUGAGGAUAUGAUACUAUGUACUUCGGUACAUAGUAUCAGAAGGCACAUACU [Ex1-3: 11] (puzzle: Exclusion 1) | – | – | 88.9 | – |

| Sequence | apparent KD of MS2 coat protein (input ligand: FMN 200 uM) [nM] | apparent KD of MS2 coat protein (input ligand: none) [nM] | apparent KD of MS2 coat protein [2] [nM] | other results |
| --- | --- | --- | --- | --- |
| UCAUACGGUGAGGAUAUCUCCACUAAAGUGUGUAGAGAAGGCGCUACAUGAGGAUCACCCAUGUUUAUGGGCAG [Ex-6 Malc#13] (Eterna round: R96, puzzle: Exclusion 6) | – | – | – | apparent KD of MS2 coat protein [4]: 236 nM |
| UCAUACGGUGAGGAUAUCUCCACUAAAGUGUGUAGAGAAGGCGCUACAUGAGGAUCACCCAUGUUUAUGGGCAG [Ex-6 Malc#13] (puzzle: Exclusion 6) | – | – | 109 | apparent KD of MS2 coat protein [1]: 52 nM; apparent KD of MS2 coat protein [3]: 124 nM |
| UCAUGUCCUGAGGAUAUCAAAGUCCUCCCGACAUGAGAAGGCAGGACAUGAGGAUCACCCAUGUGGAGCAGGGA [Sorareardi] (Eterna round: R97, puzzle: Exclusion 6) | 10.3 | 353 | – | – |
| UCCAACCCUGUGAGGAUAUCGUCCAUUAUUUGUAACGAGAAGGCACAUGAGGAUCACCCAUGUUUUUUAUUUUU [JR_BMOE4_Sub080] (puzzle: Brourd's mod of Exclusion 4) | – | – | 28 | apparent KD of MS2 coat protein [1]: 83.7 nM; apparent KD of MS2 coat protein [3]: 22.5 nM |
| UCCAUCCCUGUGAGGAUAUCGUCCGUUUUUUGUUCCGAGAAGGCACAUGAGGAUCACCCAUGUUUUUUGUUUUU [JR_BMOE4_Sub077] (puzzle: Brourd's mod of Exclusion 4) | – | – | 30.2 | – |
| UCCUCACAUGAGGAUCACCCAUGUCAGGAUAUAAGAAACGCGGCAGGCAGCCGCAAAAUUAGAAGGGACAUUAA [EX1 A.27] (Eterna round: R97, puzzle: Exclusion 1) | 47.5 | 18.2 | – | – |
| UCCUCACCCAAGGAUAUCUGAGUCGGAACUAGCAGAGAAGGUGGCACAUGAGGAUCACCCAUGUAGACCAAUGC [Eternabot (L2) Solution 9] (Eterna round: R97, puzzle: Exclusion 6) | 7.87 | 7.73 | – | – |
| UCCUUACAUGAGGAUCACCCAUGUCAGGAUAUCUCCUCACUGCGCUUGCGCAGUGAAUAGAGAAGGGACGGGCU [JL ViennaUCT Aner mod 8] (puzzle: Exclusion 1) | – | – | 32.4 | apparent KD of MS2 coat protein [1]: 36.6 nM; apparent KD of MS2 coat protein [3]: 40.1 nM |
| UCCUUACAUGAGGAUCACCCAUGUGAGGAUAUGAGGGUUGAUUUAAAUGGGUUGAUUUUCAGAAGGCACAUGAA [JR_Ex1_Sub062] (Eterna round: R97, puzzle: Exclusion 1) | 46.2 | 50.9 | – | – |
| UCGACCGGAGGAUAUUACGUAAAGUACAUGAGGAUCACCCAUGUGUGGUACCUCGAGUCGUAAGAAGGCCGAAAUA [Teisor] (puzzle: Exclusion 5) | – | – | 605 | apparent KD of MS2 coat protein [1]: 283 nM; apparent KD of MS2 coat protein [3]: 505 nM |
| UCGAUGUGAGGAUAUAUUUUUUUUUUUCCUUAUGUUUUAUAACUUGAGGAUCACCCAAGUAGAAGGCGCUACGU [JR_Ex2_Sub063] (Eterna round: R97, puzzle: Exclusion 2) | 70.6 | 136 | – | – |
| UCGCUCCGUGUAGGAUAUCGCCGUACUAUUCGGCGAGAAGGACAUGAGGAUCACCCAUGUAUGUUAUUAUCACGCGUGGCGCAA [Design 59] (Eterna round: R96, puzzle: Exclusion NG 1) | 20.3 | 16.9 | – | apparent KD of MS2 coat protein [4]: 15.2 nM |
| UCGCUGCGAGGAUAUACAUGAGGAUCACCCAUGUACGGGUCCGGGUCUUCGUCCAUUGGUAGAAGGCGCAGUGA [JL Laongeedie mod 7] (puzzle: Exclusion 3) | – | – | 22.5 | – |
| UCGCUGCGAGGAUAUACAUGAGGAUCACCCAUGUACGGGUCCGGGUCUUUGUCGAUUGGUAGAAGGCGCAGUGA [JL Laongeedie mod 10] (puzzle: Exclusion 3) | – | – | 50.3 | – |
| UCGCUGCGAGGAUAUACAUGAGGAUCACCCAUGUGCGGGUCCGGGUCUUUGUCCAUUAGUAGAAGGCGCAGUGA [JL Laongeedie mod 5] (puzzle: Exclusion 3) | – | – | 225 | – |
| UCUCGACAUGAGGAUCACCCAUGUCAGGAUAUUGUAUUGGAGGUUUUUUACCUUAUGGCAAGAAGGGAUGUGUG [LRO-Excl1-24] (puzzle: Exclusion 1) | – | – | 18.3 | – |
| UCUCGCAGGCAAGGAUAUCCUACAUUGUUCUGGCCCGGGCAUGUUACAUGAGGAUCACCCAUGUGGGAGAAGGUGCGCCAGGGC [Design 34] (Eterna round: R96, puzzle: Exclusion NG 2) | 30.6 | 30.6 | – | apparent KD of MS2 coat protein [4]: 16.3 nM |
